The target in assay [1] is hGREM1 (source and construct not stated) (human) (UniProt O60565). Briefly: ELISA on hGREM1. For orientation: ELISA stands for enzyme-linked immunosorbent assay.
Assay [2] addresses HGREM1-His (ACRO) (human) (UniProt O60565). Briefly: ELISA, binding to hGremlin-his.
For assay [3] the target is unchanged. Briefly: competition ELISA, Gremlin-his binding to coated BMP7.
Assay [4] has the same target. Briefly: blocking ELISA, Human Gremlin-1 binding to BMP2; column OD450.
Assay [5] shares this target. Briefly: blocking ELISA, Human Gremlin-1 binding to BMP4; column OD450.
Assay [6] has the same target. Briefly: blocking ELISA, Human Gremlin-1 binding to BMP7; column OD450.
Assay [7] has the same target. Briefly: blocking ELISA, Human Gremlin-1 binding to BMP2; column Percentage.
For assay [8] the target is unchanged. Briefly: blocking ELISA, Human Gremlin-1 binding to BMP4; column Percentage.
Assay [9] shares this target. Briefly: blocking ELISA, Human Gremlin-1 binding to BMP7; column Percentage.
Assay [10] has the same target. Briefly: Fortebio: Gremlin-his loaded (2ug/ml) on the sensor, antibody at 100, 50 and 25 nM. A general note: BLI is a label-free optical method that tracks binding on a fibre tip over time.
Assay [11] has the same target. Briefly: Fortebio: Gremlin-his loaded (2ug/ml), antibody at 25 nM; unit from the axis of the sensorgram.
For assay [12] the target is unchanged. Briefly: Fortebio: Gremlin-his loaded (2ug/ml), antibody at 50 nM; unit from the axis of the sensorgram.
The target is the same in assay [13]. Briefly: Fortebio: Gremlin-his loaded (2ug/ml), antibody at 100 nM; unit from the axis of the sensorgram.
The target is the same in assay [14]. Briefly: ELISA: antibody coated, Gremlin-his titrated, anti-his-HRP; the concentration is that of Gremlin-his.
For assay [15] the target is unchanged. Briefly: Fortebio: Gremlin-his loaded (2ug/ml) on the sensor, antibody at 100, 50 and 25 nM; kdis(1/s).

Chain of HGREM1-His (ACRO) (human) (O60565 25-184): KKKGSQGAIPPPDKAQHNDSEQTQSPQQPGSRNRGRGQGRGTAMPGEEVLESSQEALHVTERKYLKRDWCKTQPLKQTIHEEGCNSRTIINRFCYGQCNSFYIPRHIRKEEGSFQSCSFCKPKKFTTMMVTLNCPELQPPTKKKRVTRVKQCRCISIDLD
Chain of hGREM1 (source and construct not stated) (human) (O60565 25-184 limits assumed): as the sequence (O60565 25-184) above

B1: benchmark antibody 6245P (antibody, from another filing, V domains shown)
VH: EVQLVESGGGLVQPGGSLRLSCAASGFTFNSFWMSWVRQAPGKGLEWVANIKQDGSEKYYVDSVKGRFTISRDNAKNSVYLQMNSLRAEDTAVYYCARDLVTSFDYWGQGTLVTVSS
VL: DIQMTQSPSSLSASVGDRVTITCQASQDINNYLNWYQQKPGKAPKLLIYDASYLETGVPSGFSGSGSGTDFTFTISSLQPEDIATYYCQQYDSLPYTFGQGTKLEIK
For B1, the EC50 in assay [1] is 0.115 µg/mL; in assay [2], 0.0575 µg/mL. Also, in assay [3], the maximal blocking percentage is under 30%. Further, the IC50 in [4] turned out to be 0.797 µg/mL; in assay [5], 0.638 µg/mL; in [6] it was 0.536 µg/mL; in assay [7], 0.797 µg/mL; in assay [8], 0.638 µg/mL; in [9], 0.536 µg/mL. The same molecule returned a Kd in assay [10] of 2.58 nM. Also, in assay [10], the kon was determined as 338000 M⁻¹ s⁻¹. The Response in assay [11] was 0.313 nm; in assay [12], 0.513 nm; in [13], 0.649 nm. This molecule showed an EC50 (read off the curve) in assay [14] of 0.01 µg/mL. In addition, the koff in assay [15] came out at 0.00087 s⁻¹.

By EC50 is commonly meant the concentration that produces a half-maximal response. Lower therefore signals higher potency in that assay. What is called IC50 is the concentration at which inhibition is half-maximal. Usually Kd stands for the concentration at which binding is half-saturated. By kon is commonly meant the rate constant with which the complex forms. The EC50 (read off the curve) is the concentration giving half of the maximal effect. One may read the koff as a measure of how fast the partners let go of each other. A lower koff goes with slow dissociation.

(Values after US20240294622A1.)
